In patent publication US20230295310A1 (ABCELLERA BIOLOGICS, published 2023):

Molecular target: EGFR on HeLa cells (UniProt P00533 25-1210, limits assumed)
Test: cell-based or functional assay

B1: GOMP001_bsAb_019 (bispecific antibody, human IgG1, kappa, L234A L235A)
heavy 1: QVQLVQSGAEVKKPGASVKVSCKASGYTFTSHWMHWVRKAPGQGLEWIGEFNPSNGRTNYNEEFKSKATMTVDTSTNTAYMELSSLRSEDTAVYYCASRDYDYDGRYFDYWGQGTLVTVSSASTKGPSVFPLAPSSKSTSGGTAALGCLVADYFPEPVTVSWNSGALTSGVHTFPAVLQSSGLYSLSSVVTVPSSSLGTQTYICNVNHKPSNTKVDEKVEPKSCDKTHTCPPCPAPEAAGGPSVFLFPPKPKDTLMISRTPEVTCVVVDVSHEDPEVKFNWYVDGVEVHNAKTKPREEQYNSTYRVVSVLTVLHQDWLNGKEYKCKVSNKALPAPIEKTISKAKGQPREPQVYTLPPSREEMTDNQVSLTCLVKGFYPSDIAVEWESNGQPENNYKTTPPVLMSDGSFFLASKLTVDKSRWQQGNVFSCSVMHEALHNHYTQKSLSLSPG
light 1: RIQMTQSPSSLSASVGDRVTITCSASSSVTYMYWYQDKPGKAPKLLIYDTSNLASGVPSRFSGSGSGTDYTFTISSLQPEDIATYYCQQWSSHIFTFGQGTKVEIKRTVAAPSVFIFPPSDKQLKSGTARVVCLLNNFYPREAKVQWKVDNALQSGNSQESVTEQDSKDSTYSLSSTLTLSKADYEKHKVYACEVTHQGLSSPVTKSFNRGEC
heavy 2: EVQLVDSGGGLVQPGGSLRLSCSGSGFTFSSYWMSWVRYAPGKGLEWVANIKQDGSQKYYVDRVKGRFTISRDNVKNSLYLQMNSLRVEDTAVYYCARDESSSWYWYFDLWGRGTLVTVSSASTKGPSVFPLAPSSKSTSGGTAALGCLVKDYFPEPVTVSWNSGALTSGVHTFPAVLQSSGLYSLSSVVTVPSSSLGTQTYICNVNHKPSNTKVDKKVEPKSCDKTHTCPPCPAPEAAGGPSVFLFPPKPKDTLMISRTPEVTCVVVDVSHEDPEVKFNWYVDGVEVHNAKTKPREEQYNSTYRVVSVLTVLHQDWLNGKEYKCKVSNKALPAPIEKTISKAKGQPRRPRVYTLPPSREEMTKNQVSLVCLVKGFYPSDIAVEWESNGQPENNYKTTPPVLDSDGSFFLYSVLTVDKSRWQQGNVFSCSVMHEALHNHYTQKSLSLSPG
light 2: DIQMTQSPSTLSASVGDRVTLTCRASQNIVKWLAWYQRKPGDAPKLLIYKASSLESGVPSWFSGSGSGTEFTLTINSLQPDDFATYYCQQYYTYSRTFGQGTKVEIKRTVAAPSVFIFPPSDEQLKSGTASVVCLLNNFYPREAKVQWKVDNALQSGNSQESVTEQDSKDSTYSLSSTLTLSKADYEKHKVYACEVTHQGLSSPVTKSFNRGEC
Question: B1 was tested. Which Max killing % did it give?
Answer: The Max killing % was 48.3%.

B2: GOMP001_bsAb_020 (bispecific antibody, human IgG1, kappa, L234A L235A)
heavy 1: EVQLVDSGGGLVQPGGSLRLSCSGSGFTFSSYWMSWVRKAPGKGLEWVANIKQDGSQKYYVDEVKGRFTISRDNVKNSLYLQMNSLRVEDTAVYYCARDESSSWYWYFDLWGRGTLVTVSSASTKGPSVFPLAPSSKSTSGGTAALGCLVADYFPEPVTVSWNSGALTSGVHTFPAVLQSSGLYSLSSVVTVPSSSLGTQTYICNVNHKPSNTKVDEKVEPKSCDKTHTCPPCPAPEAAGGPSVFLFPPKPKDTLMISRTPEVTCVVVDVSHEDPEVKFNWYVDGVEVHNAKTKPREEQYNSTYRVVSVLTVLHQDWLNGKEYKCKVSNKALPAPIEKTISKAKGQPREPQVYTLPPSREEMTDNQVSLTCLVKGFYPSDIAVEWESNGQPENNYKTTPPVLMSDGSFFLASKLTVDKSRWQQGNVFSCSVMHEALHNHYTQKSLSLSPG
light 1: RIQMTQSPSTLSASVGDRVTLTCRASQNIVKWLAWYQDKPGKAPKLLIYKASSLESGVPSWFSGSGSGTEFTLTINSLQPDDFATYYCQQYYTYSRTFGQGTKVEIKRTVAAPSVFIFPPSDKQLKSGTARVVCLLNNFYPREAKVQWKVDNALQSGNSQESVTEQDSKDSTYSLSSTLTLSKADYEKHKVYACEVTHQGLSSPVTKSFNRGEC
heavy 2: QVQLVQSGAEVKKPGASVKVSCKASGYTFTSHWMHWVRYAPGQGLEWIGEFNPSNGRTNYNEKFKSKATMTVDTSTNTAYMELSSLRSEDTAVYYCASRDYDYDGRYFDYWGRGTLVTVSSASTKGPSVFPLAPSSKSTSGGTAALGCLVKDYFPEPVTVSWNSGALTSGVHTFPAVLQSSGLYSLSSVVTVPSSSLGTQTYICNVNHKPSNTKVDKKVEPKSCDKTHTCPPCPAPEAAGGPSVFLFPPKPKDTLMISRTPEVTCVVVDVSHEDPEVKFNWYVDGVEVHNAKTKPREEQYNSTYRVVSVLTVLHQDWLNGKEYKCKVSNKALPAPIEKTISKAKGQPRRPRVYTLPPSREEMTKNQVSLVCLVKGFYPSDIAVEWESNGQPENNYKTTPPVLDSDGSFFLYSVLTVDKSRWQQGNVFSCSVMHEALHNHYTQKSLSLSPG
light 2: DIQMTQSPSSLSASVGDRVTITCSASSSVTYMYWYQRKPGDAPKLLIYDTSNLASGVPSRFSGSGSGTDYTFTISSLQPEDIATYYCQQWSSHIFTFGQGTKVEIKRTVAAPSVFIFPPSDEQLKSGTASVVCLLNNFYPREAKVQWKVDNALQSGNSQESVTEQDSKDSTYSLSSTLTLSKADYEKHKVYACEVTHQGLSSPVTKSFNRGEC
Question: How did the Max killing % turn out when B2 was run?
Answer: The Max killing % was 79.6%.

Question: And the “X… HeLa EC50” value?
Answer: The value was 0.102 nM.

B3: GOMP001_bsAb_021 (bispecific antibody, human IgG1, kappa, L234A L235A)
heavy 1: QVQLVQSGAEVKKPGASVKVSCKASGYTFTSHWMHWVRKAPGQGLEWIGEFNPSNGRTNYNEEFKSKATMTVDTSTNTAYMELSSLRSEDTAVYYCASRDYDYDGRYFDYWGQGTLVTVSSASTKGPSVFPLAPSSKSTSGGTAALGCLVADYFPEPVTVSWNSGALTSGVHTFPAVLQSSGLYSLSSVVTVPSSSLGTQTYICNVNHKPSNTKVDEKVEPKSCDKTHTCPPCPAPEAAGGPSVFLFPPKPKDTLMISRTPEVTCVVVDVSHEDPEVKFNWYVDGVEVHNAKTKPREEQYNSTYRVVSVLTVLHQDWLNGKEYKCKVSNKALPAPIEKTISKAKGQPREPQVYTLPPSREEMTDNQVSLTCLVKGFYPSDIAVEWESNGQPENNYKTTPPVLMSDGSFFLASKLTVDKSRWQQGNVFSCSVMHEALHNHYTQKSLSLSPG
light 1: RIQMTQSPSSLSASVGDRVTITCSASSSVTYMYWYQDKPGKAPKLLIYDTSNLASGVPSRFSGSGSGTDYTFTISSLQPEDIATYYCQQWSSHIFTFGQGTKVEIKRTVAAPSVFIFPPSDKQLKSGTARVVCLLNNFYPREAKVQWKVDNALQSGNSQESVTEQDSKDSTYSLSSTLTLSKADYEKHKVYACEVTHQGLSSPVTKSFNRGEC
heavy 2: QMLLVESGGGVVQPGRSLTLSCAASGFTFRSYGMHWVRYAPGRGLEWVAIIWYDGSTEYYADRVKGRFTISRANSKNMLYLQMNSLRAEDTAVYYCAAFDYTNSFDIWGRGTMVTVSSASTKGPSVFPLAPSSKSTSGGTAALGCLVKDYFPEPVTVSWNSGALTSGVHTFPAVLQSSGLYSLSSVVTVPSSSLGTQTYICNVNHKPSNTKVDKKVEPKSCDKTHTCPPCPAPEAAGGPSVFLFPPKPKDTLMISRTPEVTCVVVDVSHEDPEVKFNWYVDGVEVHNAKTKPREEQYNSTYRVVSVLTVLHQDWLNGKEYKCKVSNKALPAPIEKTISKAKGQPRRPRVYTLPPSREEMTKNQVSLVCLVKGFYPSDIAVEWESNGQPENNYKTTPPVLDSDGSFFLYSVLTVDKSRWQQGNVFSCSVMHEALHNHYTQKSLSLSPG
light 2: DIVVTQTPLSSPVTLGQPASISCRSSQRFVHSDGNTYLSWLQRRPGDPPRLLIYKISNRISGVPDRFSGSGAGTDFKLKISRVEAEDVGIYYCMQATQFPYTFGQGTKLEIKRTVAAPSVFIFPPSDEQLKSGTASVVCLLNNFYPREAKVQWKVDNALQSGNSQESVTEQDSKDSTYSLSSTLTLSKADYEKHKVYACEVTHQGLSSPVTKSFNRGEC
Question: With B3 as the binder, how does the Max killing % read?
Answer: Its Max killing % is 25.4%.
